According to PMC3425544, “The S100A10 Subunit of the Annexin A2 Heterotetramer Facilitates L2-Mediated Human Papillomavirus Infection” (PLoS ONE, 2012):
No end group written: not given here.

Columns and labels:
[1] = test system: A2t (annexin A2 heterotetramer); assay: EPR binding of L2 peptide to A2t; parameters: species or system human; details: scrambled competitor 5∶1 molar ratio
Source text: Next, we wanted to determine if there was a specific interaction between the L2_108–126 peptide and A2t using electron paramagnetic resonance (EPR) spectroscopy. EPR is a method of magnetic resonance spectroscopy measuring unpaired electrons whose underlying basic concepts are not unlike the more widely used technique of nuclear magnetic resonance (NMR) (reviewed in [43]). When coupled with site-directed paramagnetic-labeling, such as the attachment of a moiety with an unpaired electron to a cysteine residue, EPR can be used to obtain structural information within a small vicinity of the paramagnetic-label’s positions along the protein sequence. As a paramagnetic-label becomes locally constrained, such as when bound to another protein, its spectra will drastically change as visualized by a decrease in line amplitude and increased line-broadening. Therefore, EPR provides an in vitro biochemical method that measures protein-protein interactions by monitoring changes in the spectra recorded for a labeled protein in different experimental settings.
For our purposes, an N-terminal cysteine (with a 3 native aa spacer) contained in the L2_108–126 peptide (C-IVS-[…]) was paramagnetic-labeled (an unpaired-electron-containing small molecule was cross-linked via a disulfide bond to the peptide), and its spectra were analyzed after incubation with and without purified human recombinant A2t or controls. […]
Recombinant annexin A2 was expressed in BL21(DE3) Escherichia coli cells and purified using reversible Ca^2+-dependent binding to negatively charged phospholipid vesicles followed by size exclusion chromatography. […] Concentrations of all proteins and peptides, including the A2t complex, were determined using bicinchoninic acid assays (Pierce Thermo Scientific, Rockford, IL) compared to measured absorbance of albumin standards at 562 nm. […]

annexin A2 = assay: EPR binding of L2 peptide to annexin A2; details: scrambled competitor 5∶1
Procedure: (§1) Recombinant annexin A2 was expressed in BL21(DE3) Escherichia coli cells and purified using reversible Ca^2+-dependent binding to negatively charged phospholipid vesicles followed by size exclusion chromatography. A pET23A vector containing the S100A10 sequence (a gift from Volker Gerke) was expressed in BL21(DE3) cells as previously described. Both proteins were stored at 4°C in 20 mM HEPES buffer at pH 7.4, containing 100 mM NaCl with the addition of 1 mM dithiothreitol. Concentrations of all proteins and peptides, including the A2t complex, were determined using bicinchoninic acid assays (Pierce Thermo Scientific, Rockford, IL) compared to measured absorbance of albumin standards at 562 nm. Purified annexin A2 and S100A10 were combined at a molar ratio of 1∶1 and concentrated to over 8 µg/µl. The mixture was incubated overnight at 4°C, and then loaded onto a superdex 200 10/300 GL (GE Healthcare USA) column equilibrated in the previously mentioned HEPES buffer. The eluted A2t peak was collected and subjected to peptide binding assays.
The L2_108–126 peptides used in our EPR studies were synthesized with a cysteine at the N-terminus, and followed by a spacer of 3 physiological amino acids (C-IVS) preceding the canonical L2_108–126 and L2 scrambled sequences (C-IVS-[…] and C-IVS-[…] respectively). Peptides were combined with 8× molar excess paramagnetic label (1-oxyl-2, 2, 5, 5-tetramethyl-Δ3-pyrroline-3-methyl) (R1) methanethiosulfonate (MTSL), (Toronto Research Chemicals, Canada) and left to react overnight at 4°C. Free label was removed by gel filtration (PD10 GE, United Kingdom). All peptides were solubilized into HEPES buffer. For competition assays, the scrambled peptide was non-paramagnetic labeled with an N-acetylated MTSL paramagnetic-label analog (1-acetyl-2,2,5,5- tetramethyl-Δ3-pyrroline-3-methyl) (R1′) at an 8× molar excess to emulate the paramagnetic label on control peptides. Binding interactions were examined by combining paramagnetically-labeled L2 peptide with A2t, BSA, ANXA2, or S100A10 (20 µM, 100 µM, 100 µM, 100 µM, and 100 µM respectively) in 10 µL volumes of the HEPES buffer, confined by glass capillaries, and measured at room temperature over a period of 24 hours using a Bruker EMX X-band EPR spectrometer. For the cysteine blocked S100A10, S100A10 was treated with R1′ and excess label was removed via gel filtration (see above) before the addition of paramagnetic labeled peptides. […] To quantify the amount of bound peptide spectra of all tested proteins in combination with the L2_108–126 or ScrL2 peptides were compared to the spectra of L2_108–126 or ScrL2 peptides alone in solution using a spectra analyzing software (EPR 130, University of California, Los Angeles). […]

S100A10 subunit of A2t = assay: EPR binding of L2 peptide to S100A10; details: EPR
Procedure: as §1
The L2_108–126 peptides used in our EPR studies were synthesized with a cysteine at the N-terminus, and followed by a spacer of 3 physiological amino acids (C-IVS) preceding the canonical L2_108–126 and L2 scrambled sequences (C-IVS-[…] and C-IVS-[…] respectively). Peptides were combined with 8× molar excess paramagnetic label (1-oxyl-2, 2, 5, 5-tetramethyl-Δ3-pyrroline-3-methyl) (R1) methanethiosulfonate (MTSL), (Toronto Research Chemicals, Canada) and left to react overnight at 4°C. Free label was removed by gel filtration (PD10 GE, United Kingdom). All peptides were solubilized into HEPES buffer. For competition assays, the scrambled peptide was non-paramagnetic labeled with an N-acetylated MTSL paramagnetic-label analog (1-acetyl-2,2,5,5- tetramethyl-Δ3-pyrroline-3-methyl) (R1′) at an 8× molar excess to emulate the paramagnetic label on control peptides. Binding interactions were examined by combining paramagnetically-labeled L2 peptide with A2t, BSA, ANXA2, or S100A10 (20 µM, 100 µM, 100 µM, 100 µM, and 100 µM respectively) in 10 µL volumes of the HEPES buffer, confined by glass capillaries, and measured at room temperature over a period of 24 hours using a Bruker EMX X-band EPR spectrometer. For the cysteine blocked S100A10, S100A10 was treated with R1′ and excess label was removed via gel filtration (see above) before the addition of paramagnetic labeled peptides. The experiments were done in triplicate with measurements taken at 12 db, in 5 scan intervals. All spectra were normalized to the same number of scans. To quantify the amount of bound peptide spectra of all tested proteins in combination with the L2_108–126 or ScrL2 peptides were compared to the spectra of L2_108–126 or ScrL2 peptides alone in solution using a spectra analyzing software (EPR 130, University of California, Los Angeles). By subtracting the alone peptide spectra from that of the combined samples we derive the spectra of the bound spectra, and based on double integration, relate this spectra to a concentration of the peptide that bound to the target protein.

[2] = test system: HPV16 infection of COS-1 cells; details: pre-incubation, compared to control peptides; ref [28]; cited from earlier work
Source text: Though the interaction between L1 and HSPG appears to be the primary initiator of epithelial cell infection, the electrostatic interaction to the negatively charged polysaccharides is generally thought to be non-specific, and may lead to a cascade of subsequent capsid conformational changes.

[3] = target: T1, annexin A2 heterotetramer (A2t), purified human recombinant (human, UniProt P07355 1-339; P60903 1-97); assay: electron paramagnetic resonance (EPR) spectroscopy; details: both partners purified
T1 construct: also called A2t complex

recombinant annexin A2 [4] = target: T2, recombinant annexin A2 (human, UniProt P07355 1-339); assay: electron paramagnetic resonance (EPR) spectroscopy; details: both partners purified
T2 construct: also called ANXA2; annexin A2 subunit

recombinant S100A10 [5] = target: T3, recombinant S100A10 (human, UniProt P60903 1-97); assay: electron paramagnetic resonance (EPR) spectroscopy; details: both partners purified
T3 construct: also called S100A10 subunit; p11; source: E. coli BL21(DE3), pET23A vector, purified

[6] = target: T1, annexin A2 heterotetramer (A2t), …; assay: electron paramagnetic resonance (EPR) spectroscopy; paramagnetic-labeled peptide (20 µM) mixed with protein (100 µM) in 10 µL HEPES buffer (20 mM HEPES pH 7.4, 100 mM NaCl) in glass capillaries, room temperature; percent bound from subtraction of the free-peptide spectrum and double integration; 'relative' binding constant K = [AB]/[A][B]; details: both partners purified
recombinant annexin A2 [7] = target: T2, recombinant annexin A2; assay: as above; details: both partners purified
recombinant S100A10 [8] = target: T3, recombinant S100A10; assay: as above; details: both partners purified
[9] = target: T4, cysteine-blocked S100A10 (αCys-S100A10) (human, UniProt P60903 1-97); assay: as above; details: both partners purified
T4 construct: source: E. coli BL21(DE3), purified, then treated with R1′ and gel filtered

[10] = target: T1, annexin A2 heterotetramer (A2t), …; assay: cell-based or functional assay

T1 sequence (P07355 whole entry, chain 1 of 2): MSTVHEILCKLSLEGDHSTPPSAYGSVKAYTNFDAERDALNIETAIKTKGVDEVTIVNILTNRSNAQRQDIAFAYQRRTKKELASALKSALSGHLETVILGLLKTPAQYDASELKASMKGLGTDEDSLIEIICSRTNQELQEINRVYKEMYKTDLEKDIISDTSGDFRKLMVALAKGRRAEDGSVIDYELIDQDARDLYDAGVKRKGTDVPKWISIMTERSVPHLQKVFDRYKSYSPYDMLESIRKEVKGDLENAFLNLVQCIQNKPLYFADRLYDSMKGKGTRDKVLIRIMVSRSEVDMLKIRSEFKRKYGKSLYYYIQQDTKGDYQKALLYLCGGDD
T1 sequence (P60903 whole entry, chain 2 of 2): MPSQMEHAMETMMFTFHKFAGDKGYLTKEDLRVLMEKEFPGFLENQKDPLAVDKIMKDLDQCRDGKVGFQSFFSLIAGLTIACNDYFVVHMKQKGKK
T3 sequence (P60903 whole entry): as the sequence (P60903 whole entry, chain 2 of 2) above
T2 sequence (P07355 whole entry): as the sequence (P07355 whole entry, chain 1 of 2) above
T4 sequence (P60903 whole entry): as the sequence (P60903 whole entry, chain 2 of 2) above

## C-IVS-IESPVSDTALGTPEIFVSA [ScrL2, scrambled version of the L2_108–126 peptide, reference compound]
[1]
  competition for L2_108–126 – A2t interaction: No significant changes in spectra signal were observed
Annexin A2
  competition for L2 peptide – annexin A2 interaction: partially competed off
S100A10 subunit of A2t; S100A10 cysteine-blocked with R1′ (αCys-S100A10), paramagnetic-labeled peptide, mean of three separate experiments
  relative % bound to cysteine-blocked S100A10: 6.3%
S100A10 subunit of A2t; scrambled competitor 5∶1
  competition for L2 peptide – S100A10 interaction: minimally competed off

## L2_108–120: L2_108–120 peptide of ref 28 (LVEETSFIDAGAP; UniProt P03107 108-120, looked up, fragment)
[2]
  reduction of infection of COS-1 cells: approximately 60%

B1: HPV16 L2_(108–126) peptide, paramagnetic-labeled (C-IVS-LVEETSFIDAGAPTSVPSI) (peptide)
peptide: CIVSLVEETSFIDAGAPTSVPSI
modifications: also: paramagnetic label, site not given here
notes: source: synthetic peptide (Synthetic Biomolecules or Biomer Technology), HPLC purified to >95%
[3]
  percent of peptide bound with ScrL2 at 5:1: 75.8%
Recombinant annexin A2 [4]
  percent of peptide bound with ScrL2 at 5:1: 17.7%
Recombinant S100A10 [5]
  percent of peptide bound with ScrL2 at 5:1: 91%
[6]
  Ka: 100000 M⁻¹
  percent of peptide bound: 78%
Recombinant annexin A2 [7]
  percent of peptide bound: 23.6%
Recombinant S100A10 [8]
  Ka: 150000 M⁻¹
  percent of peptide bound: 92.5%
[9]
  percent of peptide bound: 73.1%

B2: HPV16 L1–L2(GGDD) mutant pseudovirions (complex, human papillomavirus type 16)
chain 1: MSLWLPSEATVYLPPVPVSKVVSTDEYVARTNIYYHAGTSRLLAVGHPYFPIKKPNNNKILVPKVSGLQYRVFRIHLPDPNKFGFPDTSFYNPDTQRLVWACVGVEVGRGQPLGVGISGHPLLNKLDDTENASAYAANAGVDNRECISMDYKQTQLCLIGCKPPIGEHWGKGSPCTNVAVNPGDCPPLELINTVIQDGDMVDTGFGAMDFTTLQANKSEVPLDICTSICKYPDYIKMVSEPYGDSLFFYLRREQMFVRHLFNRAGAVGENVPDDLYIKGSGSTANLASSNYFPTPSGSMVTSDAQIFNKPYWLQRAQGHNNGICWGNQLFVTVVDTTRSTNMSLCAAISTSETTYKNTNFKEYLRHGEEYDLQFIFQLCKITLTADVMTYIHSMNSTILEDWNFGLQPPPGGTLEDTYRFVTSQAIACQKHTPPAPKEDPLKKYTFWEVNLKEKFSADLDQFPLGRKFLLQAGLKAKPKFTLGKRKATPTTSSTSTTAKRKKRKL
chain 2: MRHKRSAKRTKRASATQLYKTCKQAGTCPPDIIPKVEGKTIAEQILQYGSMGVFFGGLGIGTGSGTGGRTGYIPLGTRPPTATDTLAPVRPPLTVDPVGPSDPSIVSGGDDTSFIDAGAPTSVPSIPPDVSGFSITTSTDTTPAILDINNTVTTVTTHNNPTFTDPSVLQPPTPAETGGHFTLSSSTISTHNYEEIPMDTFIVSTNPNTVTSSTPIPGSRPVARLGLYSRTTQQVKVVDPAFVTTPTKLITYDNPAYEGIDVDNTLYFSSNDNSINIAPDPDFLDIVALHRPALTSRRTGIRYSRIGNKQTLRTRSGKSIGAKVHYYYDLSTIDPAEEIELQTITPSTYTTTSHAASPTSINNGLYDIYADDFITDTSTTPVPSVPSTSLSGYIPANTTIPFGGAYNIPLVSGPDIPINITDQAPSLIPIVPGSPQYTIIADAGDFYLHPSYYMLRKRRKRLPYFFSDVSLAA
[10]
  pseudo-infection of HaCaT cells (percent GFP-positive, 48 h) by the mutant PsV against wild-type PsV: > 10 fold reduction
